Source: article PMC10445738

Tests used:
Assay in all cases: AP-MS
[1] = target: HOIL-1-interacting protein (HOIP), endogenous (UniProt Q96EP0); settings: FLAG-tagged OTULIN bait expressed in HEK293 cells; endogenous prey; parent: est. 27; read off a plot
SLC9A3R2, endogenous = SLC9A3R2, endogenous (UniProt Q15599); settings: FLAG-tagged OTULIN bait expressed in HEK293 cells; endogenous prey; read off a plot
SNX27, endogenous = SNX27, endogenous (UniProt Q96L92); settings: FLAG-tagged OTULIN bait expressed in HEK293 cells; endogenous prey; parent: est. 62; read off a plot
[2] = target: scribble (SCRIB), endogenous (UniProt Q14160); settings: FLAG-tagged OTULIN bait expressed in HEK293 cells; endogenous prey; parent: est. 110; read off a plot
Chain of UniProt Q14160 (Q14160 whole entry): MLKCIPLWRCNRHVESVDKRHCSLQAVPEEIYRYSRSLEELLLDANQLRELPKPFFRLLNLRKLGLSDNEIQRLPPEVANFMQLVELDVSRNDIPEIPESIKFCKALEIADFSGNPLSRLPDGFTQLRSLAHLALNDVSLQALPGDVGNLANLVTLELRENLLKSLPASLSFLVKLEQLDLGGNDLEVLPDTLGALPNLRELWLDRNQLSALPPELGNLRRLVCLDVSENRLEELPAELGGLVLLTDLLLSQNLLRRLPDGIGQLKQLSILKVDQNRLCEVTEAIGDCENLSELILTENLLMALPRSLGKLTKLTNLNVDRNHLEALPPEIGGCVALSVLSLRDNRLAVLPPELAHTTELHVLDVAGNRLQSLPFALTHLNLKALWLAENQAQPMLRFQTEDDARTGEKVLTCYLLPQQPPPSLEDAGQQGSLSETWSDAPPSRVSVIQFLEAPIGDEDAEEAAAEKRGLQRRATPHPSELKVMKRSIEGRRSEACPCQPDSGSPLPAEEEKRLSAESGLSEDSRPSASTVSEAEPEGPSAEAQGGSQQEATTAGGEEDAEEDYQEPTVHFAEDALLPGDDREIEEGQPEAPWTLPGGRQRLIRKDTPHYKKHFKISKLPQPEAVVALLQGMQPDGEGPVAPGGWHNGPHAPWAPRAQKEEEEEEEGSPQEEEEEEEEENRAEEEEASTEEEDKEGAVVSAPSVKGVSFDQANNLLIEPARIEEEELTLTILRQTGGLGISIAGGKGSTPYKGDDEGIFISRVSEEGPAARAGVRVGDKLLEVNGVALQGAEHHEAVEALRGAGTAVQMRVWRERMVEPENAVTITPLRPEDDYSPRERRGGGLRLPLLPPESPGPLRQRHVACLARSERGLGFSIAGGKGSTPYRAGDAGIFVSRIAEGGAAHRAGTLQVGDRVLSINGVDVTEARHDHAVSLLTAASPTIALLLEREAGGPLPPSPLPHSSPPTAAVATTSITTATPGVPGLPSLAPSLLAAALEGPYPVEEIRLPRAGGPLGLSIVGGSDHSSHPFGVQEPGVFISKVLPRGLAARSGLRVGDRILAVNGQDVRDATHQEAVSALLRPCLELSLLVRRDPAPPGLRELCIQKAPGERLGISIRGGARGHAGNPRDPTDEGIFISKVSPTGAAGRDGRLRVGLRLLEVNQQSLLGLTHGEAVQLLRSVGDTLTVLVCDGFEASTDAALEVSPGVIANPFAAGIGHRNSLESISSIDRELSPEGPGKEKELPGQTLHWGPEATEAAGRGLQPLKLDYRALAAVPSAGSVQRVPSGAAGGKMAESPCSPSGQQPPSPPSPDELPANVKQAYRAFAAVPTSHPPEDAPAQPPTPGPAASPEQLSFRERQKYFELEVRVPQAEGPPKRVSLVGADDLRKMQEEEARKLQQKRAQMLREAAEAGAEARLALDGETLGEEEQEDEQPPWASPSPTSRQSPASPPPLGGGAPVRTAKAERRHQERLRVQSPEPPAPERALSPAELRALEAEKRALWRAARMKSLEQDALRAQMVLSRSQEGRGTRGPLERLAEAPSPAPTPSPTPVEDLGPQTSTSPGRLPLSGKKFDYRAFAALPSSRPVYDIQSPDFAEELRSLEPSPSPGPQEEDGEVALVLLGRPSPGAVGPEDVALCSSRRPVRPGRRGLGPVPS

Chain of UniProt Q96EP0 (Q96EP0 whole entry): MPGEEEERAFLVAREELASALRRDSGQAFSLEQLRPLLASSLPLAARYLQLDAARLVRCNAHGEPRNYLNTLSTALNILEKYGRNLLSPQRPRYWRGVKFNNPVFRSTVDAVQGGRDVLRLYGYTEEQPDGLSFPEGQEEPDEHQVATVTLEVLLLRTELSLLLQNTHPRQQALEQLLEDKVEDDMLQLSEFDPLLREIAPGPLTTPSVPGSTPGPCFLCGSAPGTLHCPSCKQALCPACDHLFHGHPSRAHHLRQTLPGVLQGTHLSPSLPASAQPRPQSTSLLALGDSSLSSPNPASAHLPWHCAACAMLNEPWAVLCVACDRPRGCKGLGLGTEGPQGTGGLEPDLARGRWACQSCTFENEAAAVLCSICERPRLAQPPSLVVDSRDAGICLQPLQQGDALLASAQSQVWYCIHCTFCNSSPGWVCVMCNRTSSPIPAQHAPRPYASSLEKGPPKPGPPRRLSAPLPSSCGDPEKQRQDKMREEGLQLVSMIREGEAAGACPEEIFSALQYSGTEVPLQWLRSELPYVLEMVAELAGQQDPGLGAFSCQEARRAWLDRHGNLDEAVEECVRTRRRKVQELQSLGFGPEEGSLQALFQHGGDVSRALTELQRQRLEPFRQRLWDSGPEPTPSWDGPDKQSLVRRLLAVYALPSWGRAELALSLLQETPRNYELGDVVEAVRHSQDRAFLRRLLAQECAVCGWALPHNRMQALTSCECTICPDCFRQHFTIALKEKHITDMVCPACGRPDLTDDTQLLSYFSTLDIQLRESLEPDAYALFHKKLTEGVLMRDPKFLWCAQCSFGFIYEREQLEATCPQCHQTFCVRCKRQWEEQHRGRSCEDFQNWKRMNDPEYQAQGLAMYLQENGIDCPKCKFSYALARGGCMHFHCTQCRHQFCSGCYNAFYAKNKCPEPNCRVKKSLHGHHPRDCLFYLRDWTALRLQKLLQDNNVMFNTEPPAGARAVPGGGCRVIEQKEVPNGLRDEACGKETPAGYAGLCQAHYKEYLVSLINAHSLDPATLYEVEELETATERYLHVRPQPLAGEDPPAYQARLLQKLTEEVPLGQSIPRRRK
Chain of UniProt Q15599 (Q15599 whole entry): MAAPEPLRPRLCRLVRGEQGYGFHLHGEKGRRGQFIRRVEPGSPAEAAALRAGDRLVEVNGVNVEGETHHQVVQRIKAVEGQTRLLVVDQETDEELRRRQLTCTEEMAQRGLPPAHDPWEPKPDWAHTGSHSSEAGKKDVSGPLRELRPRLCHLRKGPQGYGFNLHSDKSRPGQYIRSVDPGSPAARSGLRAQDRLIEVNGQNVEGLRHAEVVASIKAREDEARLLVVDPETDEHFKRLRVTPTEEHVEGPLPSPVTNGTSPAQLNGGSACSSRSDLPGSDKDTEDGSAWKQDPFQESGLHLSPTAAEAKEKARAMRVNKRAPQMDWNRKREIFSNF

## FLAG-tagged full-length OTULIN (WT) (from UniProt Q96BN8) ΔPBM: C-terminal ETSL to AAAA
[1]
  response (spectral counts): 23
SLC9A3R2, endogenous
  response (spectral counts): 0
SNX27, endogenous
  response (spectral counts): 0
[2]
  response (spectral counts): 0
